From article PMC6867900, “The Cyclic AMP Receptor Protein Regulates Quorum Sensing and Global Gene Expression in Yersinia pestis during Planktonic Growth and Growth in Biofilms” (mBio, 2019)

Target: the molecule itself
Test: crystal structure

B1: Yersinia pestis cyclic AMP (cAMP) receptor protein (Crp) (natural protein)
chain: MVLGKPQTDPTLEWFLSHCHIHKYPSKSTLIHQGEKAETLYYIVKGSVAVLIKDEEGKEMILSYLNQGDFIGELGLFEEGQERSAWVRAKTACEVAEISYKKFRQLIQVNPDILMRLSSQMANRLQITSEKVGNLAFLDVTGRIAQTLLNLAKQPDAMTHPDGMQIKITRQEIGQIVGCSRETVGRILKMLEDQNLISAHGKTIVVYGTR
notes: also called Y. pestis Crp
  stoichiometry N: 2
